Laboratory results taken from the nanobody polyreactivity screen of Harvey et al. (2022).

Test: yeast display, Sf9 membrane polyspecificity reagent, FACS + sequencing; frameworks hold sequencing errors
Procedure, shortened: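 A nanobody's polyreactivity label depends on the gate it was sorted from. Yeast display cells were stained with 10% biotinylated, detergent-solubilized Sf9 membrane reagent for 1 hour at 4 °C, enriched on streptavidin microbeads and sorted by FACS. The low and high (top ~1%) gates were set on anti-HA fluorescence for expression and streptavidin fluorescence for reagent binding.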

Sequence | polyreactivity (PSR sort gate)
QVQHVESGGGLVQAGGSLRLSCAASGYTFPLYAMGWYRQAPGKEREFVAAISKRSGTTYYADSVKGRFTISRDNAKNTVYLQMNSLKPEDTAVYYCNAGYSVYNQRFGYWGQGTQVTVSS | high polyreactivity
QVQLVESGGGLVQAGGSLRLSCAASGLTFDYYVMGWYRQAPGKERELVATISWSGDITYYADSVKGRFTISRDNAKNTVYLQMNSLKPEDTAVYYSATDKSYSSWSAQYDYWGQGTQVTVSS | low polyreactivity
QVHLVESCGALVHAGGSLRLSCAASGSIFRGNAMGWYRQAPWKERELVAAITGSGGNTYYADSVKGRFTISRDNAKNTVYLQMNSLKPEDTAVYYCNADGWNTYIGPRRYSYDYWGQGTQVTISS | low polyreactivity
QVQLVESGGGLVQAGGSLRLSCAASGSTFRLYAMGWYRQAPGKERELVAAISSRGGSTYYADSVKGRFTISRDNAKNTVYLQMNSLKPEDTAVYYCATDYITPSSEGDYWGQGTQVTVTS | high polyreactivity
QVQLVESGGGLVQAGGSLRLSCAASGSIFRYYVMGWYRQAPGKERELVAAISTGDRTNYADSVKGRFTISRDNAKNTVYLQMNILKPEDTAVYYCNADYVVGWARLEFNYWGQGTQVTVSS | low polyreactivity
QVQLVESGGGLVQAGGSLRLSCAASGLTFYGYAMGWYRQAPGKERELVAAIRWSGGRTYYADSVKGRFTISRDNAKNTVYLQMNSLKPEDTAVYYCAADYRRYYGGDYWGQGTQVTVSS | low polyreactivity
QVQLVESGGGLVQAGGSLRLSCDASGSIIRYYAMGWYRQAPGKERELVAAINSLGGTTYYADSVKGRFTISRDNAKNTVYLQMNSLKPEDTAVYYCAAGYPPLHTSVQQTAHYGLDYCGQGTQVTVSS | high polyreactivity
QVQLVESGGGLVQAGGSLRLSCADSGNTFYVDTMGWYREAPGKESELVAAIYSTGDRTYYADSLKGRFTISRYKAKNTVYLQMNRLKPEDTAVYYWAARLYRGSLGYYFWGQVTQVTVSS | high polyreactivity
QVQLVESGGGLVQAGGSLRLTCAASGRIFYRYAMGWYRQAPWKERELVAAIRYSGGRTYYADSVKGRFTISRDNAKNTVYLQMNSLQPEDTAVYYCAADGQWYYAPFRGGDYENDYWGQGTQVTVPS | low polyreactivity
QVQLVESGGALVQAGGSLRFSCASSGRIFSSNTMGWYRQAPGKERELVAAISRGSITYYAHSVKGRFTISRDNAKNTVYLQMNSLKPEDTAVYYCAAGVGLDNYGYGYWGQGTQVTVSS | low polyreactivity
QVQLQESGGGLVQAGGSLRRSCAASGSIFYHWAMGWYRQTPGKERELVASITSGGNTNYADSVKGRFTISRDNAKNTVYLPMDRLKPEDTAVYYCAADGYYGAWDLEYYYWGQGTQVTVSS | low polyreactivity
QVQLVESGGGLVQAGGTLRLSCAASGSTFGPNAMGWYRQAPGKEREVVATIRGSGATTYYADSVKGRFTISRDNAKNTVYLQMNSLKPEDSAVYYCDTAYFSGWYNRYGRATSYDYWGQGTEVTVSS | high polyreactivity
QVQLVESGGGLVQAGCSLRISCAASGLIFQYYAMGWYRQAPGKERELVAAISGFGVRTYYADSVKGRFTISRDNAKNTVYLQMNSLKPEDTAVYYCNTLRQDIIRGDYWGQGTQVTVSS | high polyreactivity
QVQLVESGGGLVQAGGSLRLSCAASGSTYNAMGWYRQAPGKEREFVAAISWGGGSTYYADSVKGRFTISRDNAKNTVYLQMNSLKPEDTAVYYCAKTPNYRIRHDYWGQGTQVTVSS | low polyreactivity
QVQLVESGGGLVQAGGSLRLSFAASGRTFEPYPLGWYRQAPGKERELVAAIDVGDGTTYYAYSVKGRFTISRDNAKYTVYLELNSLKPEDTAVYYCAADVIGFVGSEDYWGQGTQVTVSS | low polyreactivity
QVQLVESGGGLVQAGGSLRLSCAASGRIFTIYAMGWYRQAPGKERELVAAISDRGTRTYYADSVKGRFTISRDNAKNTVYLQMNSLKPEDTAVYYCATDALYTYGYDYWGQGTQVTVSS | low polyreactivity
QVQLVESGGGLVQAGGSLRLSCAASGLTFGAYAMGWYRQAPRKEREFVAAITYSGGSSNYADSVKGRFTISRDNAKNTVYLQMNSLKPEDTAVYYCNAGYYSPWAFYPYDYWGQGTQVTVSS | high polyreactivity
QVQLVESGGGLVQAGGSLRFSCAASGGTFYVYAMGGYRQATGKERELVAAISTSGGSTYYADSVKGRFTISRDNAKNTVYLQMNSLKPEDTAVYYCAARRVSFSGHPRYGYWGQGTQVTVSS | high polyreactivity
QVQLVESGRGLVQAGGSLRLSCAASAVSFISYAMGWYRQAPGKERELVAAISRGGSSTYYADSVKGRFTISRDNAKNTVYLQMNSLKPEDTAVYYCNKAYHRRDSEFGYSGQGTQVTVSS | high polyreactivity
QVQLVESGGGLVQEGGRLRLSCAASGITFRYYAMGWYRQAPGKERELVAAISWGGGSTYYADSVKGRFTISRDNATNTVYLQMNSLKPEDTAVYYCNARGSVRPYGPRATLDYWGQGTQVTVSS | high polyreactivity
QVQLVESGGGLVQAGGSLRLSCAASGIFRRYAMGWYREAPGKERELVAAISSNGGSTYYADSVKGRFTISRDNAKNTVYLQMNSLKPEDTAVYYCNADVYVWNYKYYSWGQGTQVTVSS | high polyreactivity
QVQLVESGGGLVQAGGSLRLSCAASGFILARYAMGWYRQAPGKERELVAVISSGGSSTFYADSVKGRFTISRDNAKNTVYLQMKSLKPEDTAVYYCAARYKSSKKVGFDYWGQGTQVTVSS | high polyreactivity
QVQLVESGGGLVQAGGSLRLSCAASGSICRYYDMGWYRQAPGKERELVAAISRSGGSTYYADSVKGRFTISRDNAKNTVYLQMNSLKPEDTAVYYCNVDQFRYREDDYWGQGTQVNVSS | high polyreactivity
QVQLVESGGGLVQAGGSLRLSCASSGRTFALYAMGWYRKAPGKERELVAGITFRGGSTYYADSVKGRFTISRDNAKKTVYLQMISQKPEDNAVYYCAAERWRWYYSWNMDYWGQCTQVTVSS | high polyreactivity
QVQLVESGGGLVQAGGSLRLSCAPSGIIYRYYGMVWYRQAPGKERELVAVITNSDGSTYYADSVKGRFTISRDNAKNTVYLQQYSLKPEDTAVYYCAARGITSRQRYYWGQGTQVTVSS | low polyreactivity
QVQLVESGGGLVQAGGSLRLSCAASGSTISINALGWSRQAPGKERELVAAITGGDTNTYYADSVKGRFTISRDTAKNTVYLLMNSLKPEDTAVYYCNARIYDYAGAGTWSYDSWGQGTQVTVSS | low polyreactivity
QVQLVESRGGLVQAGGSLRLSCAASGSIFNYNAMGCYRQAPGKEREFVAAINQGGTSTYYADSVKGRFTISRDNANHTVYLQMNSLKPEDTAVYYCAALITVYRGSYEYCGQGTQVTVSS | low polyreactivity
QVQLVESGGGLVQAGGSLRLSCAASGFIFYYYAMGWYRQAPGKERELVAAISRGGSTYYADSVKGRFTISRDNAKNTVYLQMNSLKPEDTAVYYCAAEAFPVYSYYYWGQGTQVTVSS | high polyreactivity
QVQLVESGGGLVQAGGSLRLTCAASGNTFSLNPMGWYRQATGTETELVASSTWDGASTYADSVKGRFTISRDNAKNTVFLQMNSLKPEDTAVYFCAADTYRYGRFLKFDYWGQGTQVTVSS | low polyreactivity
QVQLVESGGGLVQAGGSLRLSCAASGSTFGVNAMGWYRQAPGKERELVAAISWSGGSTYYADSVKGRFTISRDNAKNTVYLQMNSLKPEDTAVYYCAADFDYGIWGRYEYWGQGTQVTVSS | high polyreactivity
